Reference: IntAct's records for PubMed 24668264

Columns and labels:
[1] = target: mlp3b_human MAP1LC3B (UniProt Q9GZQ8)
[2] = target: mlp3c_human MAP1LC3C (UniProt Q9BXW4)
[3] = target: mlp3c_human MAP1LC3C (UniProt Q9BXW4); remark: listed apart in the source
[4] = target: wdfy3_human WDFY3 (UniProt Q8IZQ1)
Chain of UniProt Q8IZQ1 (Q8IZQ1 whole entry): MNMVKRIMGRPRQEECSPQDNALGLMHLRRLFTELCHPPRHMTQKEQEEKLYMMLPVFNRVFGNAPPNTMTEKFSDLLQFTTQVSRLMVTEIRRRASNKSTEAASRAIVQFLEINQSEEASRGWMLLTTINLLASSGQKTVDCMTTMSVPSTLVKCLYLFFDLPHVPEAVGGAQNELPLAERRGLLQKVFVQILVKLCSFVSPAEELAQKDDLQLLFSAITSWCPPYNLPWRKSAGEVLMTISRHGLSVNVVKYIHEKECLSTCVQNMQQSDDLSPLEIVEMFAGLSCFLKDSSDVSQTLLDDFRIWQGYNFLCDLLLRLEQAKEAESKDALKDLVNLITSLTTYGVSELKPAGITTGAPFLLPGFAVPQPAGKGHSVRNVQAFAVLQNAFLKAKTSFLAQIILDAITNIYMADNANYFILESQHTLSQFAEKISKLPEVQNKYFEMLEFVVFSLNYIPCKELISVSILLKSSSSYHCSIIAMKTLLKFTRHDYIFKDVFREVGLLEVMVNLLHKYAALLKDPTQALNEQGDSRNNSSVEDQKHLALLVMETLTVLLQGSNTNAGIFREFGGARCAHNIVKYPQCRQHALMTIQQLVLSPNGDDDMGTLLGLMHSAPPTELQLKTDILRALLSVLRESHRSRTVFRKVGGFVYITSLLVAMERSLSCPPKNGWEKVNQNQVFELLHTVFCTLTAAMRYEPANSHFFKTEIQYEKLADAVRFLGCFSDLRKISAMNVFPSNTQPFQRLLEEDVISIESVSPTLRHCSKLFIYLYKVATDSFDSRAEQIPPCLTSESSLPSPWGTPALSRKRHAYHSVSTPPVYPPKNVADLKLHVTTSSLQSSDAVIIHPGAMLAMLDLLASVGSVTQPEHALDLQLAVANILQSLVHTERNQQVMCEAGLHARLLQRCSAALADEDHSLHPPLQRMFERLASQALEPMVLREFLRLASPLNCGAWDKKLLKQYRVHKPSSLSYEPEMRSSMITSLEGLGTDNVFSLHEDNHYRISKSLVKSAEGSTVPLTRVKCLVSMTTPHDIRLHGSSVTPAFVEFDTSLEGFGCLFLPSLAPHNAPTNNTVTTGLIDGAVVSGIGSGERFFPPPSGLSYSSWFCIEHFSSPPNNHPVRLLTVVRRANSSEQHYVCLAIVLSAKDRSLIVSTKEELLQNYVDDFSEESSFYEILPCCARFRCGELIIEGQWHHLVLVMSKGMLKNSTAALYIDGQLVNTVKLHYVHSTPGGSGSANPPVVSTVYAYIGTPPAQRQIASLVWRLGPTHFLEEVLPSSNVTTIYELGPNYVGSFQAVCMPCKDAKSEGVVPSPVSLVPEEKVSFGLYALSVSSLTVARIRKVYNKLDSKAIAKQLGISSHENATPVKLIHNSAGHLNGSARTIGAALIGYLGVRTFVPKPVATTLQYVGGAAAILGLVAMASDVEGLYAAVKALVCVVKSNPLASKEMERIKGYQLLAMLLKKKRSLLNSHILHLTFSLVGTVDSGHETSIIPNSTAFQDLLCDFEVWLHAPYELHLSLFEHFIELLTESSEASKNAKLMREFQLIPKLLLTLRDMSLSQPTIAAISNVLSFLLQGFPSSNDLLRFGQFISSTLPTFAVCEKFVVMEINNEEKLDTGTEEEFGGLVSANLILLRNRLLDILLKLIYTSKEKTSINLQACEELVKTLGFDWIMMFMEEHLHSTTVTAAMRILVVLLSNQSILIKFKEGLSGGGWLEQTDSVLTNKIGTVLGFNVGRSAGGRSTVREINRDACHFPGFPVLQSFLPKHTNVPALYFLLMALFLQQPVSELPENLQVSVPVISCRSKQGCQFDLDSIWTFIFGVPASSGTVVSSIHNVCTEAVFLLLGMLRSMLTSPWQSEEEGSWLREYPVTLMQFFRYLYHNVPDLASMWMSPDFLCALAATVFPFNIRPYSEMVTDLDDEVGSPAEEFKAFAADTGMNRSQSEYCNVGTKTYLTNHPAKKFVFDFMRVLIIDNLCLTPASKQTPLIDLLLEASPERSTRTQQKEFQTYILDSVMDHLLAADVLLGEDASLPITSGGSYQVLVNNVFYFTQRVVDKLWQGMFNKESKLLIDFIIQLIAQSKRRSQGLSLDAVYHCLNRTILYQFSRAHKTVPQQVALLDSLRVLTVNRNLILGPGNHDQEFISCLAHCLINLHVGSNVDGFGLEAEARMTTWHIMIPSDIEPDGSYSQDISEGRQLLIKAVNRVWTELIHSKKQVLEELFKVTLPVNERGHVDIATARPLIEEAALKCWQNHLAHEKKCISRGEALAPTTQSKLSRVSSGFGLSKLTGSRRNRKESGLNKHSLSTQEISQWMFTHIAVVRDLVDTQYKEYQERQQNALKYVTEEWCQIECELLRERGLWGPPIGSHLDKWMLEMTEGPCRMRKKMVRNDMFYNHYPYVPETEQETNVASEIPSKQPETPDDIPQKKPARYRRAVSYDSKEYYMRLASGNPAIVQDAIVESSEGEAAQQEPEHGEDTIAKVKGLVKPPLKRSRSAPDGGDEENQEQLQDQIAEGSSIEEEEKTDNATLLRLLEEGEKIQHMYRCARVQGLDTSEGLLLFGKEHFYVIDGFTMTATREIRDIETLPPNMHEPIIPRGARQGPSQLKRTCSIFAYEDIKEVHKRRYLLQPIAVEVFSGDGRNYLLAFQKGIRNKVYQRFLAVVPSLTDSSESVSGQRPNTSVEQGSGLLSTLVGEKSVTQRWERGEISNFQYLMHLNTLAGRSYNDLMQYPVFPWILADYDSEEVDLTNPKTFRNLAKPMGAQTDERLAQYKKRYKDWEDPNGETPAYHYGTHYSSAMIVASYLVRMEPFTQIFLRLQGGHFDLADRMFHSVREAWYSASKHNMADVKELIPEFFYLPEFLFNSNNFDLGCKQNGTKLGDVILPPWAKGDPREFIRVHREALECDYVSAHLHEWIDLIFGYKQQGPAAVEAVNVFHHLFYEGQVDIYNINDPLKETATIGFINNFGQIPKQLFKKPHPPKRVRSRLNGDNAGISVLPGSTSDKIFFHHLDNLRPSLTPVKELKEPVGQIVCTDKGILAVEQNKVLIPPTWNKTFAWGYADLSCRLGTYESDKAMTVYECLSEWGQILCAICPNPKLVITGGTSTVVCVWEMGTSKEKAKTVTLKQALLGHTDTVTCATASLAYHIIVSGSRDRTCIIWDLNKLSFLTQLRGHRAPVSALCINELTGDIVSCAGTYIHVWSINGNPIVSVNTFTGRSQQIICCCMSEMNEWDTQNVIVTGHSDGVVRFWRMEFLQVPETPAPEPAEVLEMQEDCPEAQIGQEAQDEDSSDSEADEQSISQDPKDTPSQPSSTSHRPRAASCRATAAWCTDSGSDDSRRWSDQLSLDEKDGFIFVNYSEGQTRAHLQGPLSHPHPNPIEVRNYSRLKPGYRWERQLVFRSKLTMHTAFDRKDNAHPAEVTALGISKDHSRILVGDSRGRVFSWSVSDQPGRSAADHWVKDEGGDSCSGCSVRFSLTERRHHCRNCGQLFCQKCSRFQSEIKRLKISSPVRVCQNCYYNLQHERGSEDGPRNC

Chain of UniProt Q9BXW4 (Q9BXW4 whole entry): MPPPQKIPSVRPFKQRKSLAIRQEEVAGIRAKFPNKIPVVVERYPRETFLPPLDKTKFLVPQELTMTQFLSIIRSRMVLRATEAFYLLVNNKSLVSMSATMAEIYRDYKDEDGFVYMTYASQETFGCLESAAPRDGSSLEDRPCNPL

Substance: WD repeat and FYVE domain-containing protein 3 (Homo sapiens), Q8IZQ1 F3346A
- effect of a mutation on the interaction [1]: disrupting interaction

Substance: WD repeat and FYVE domain-containing protein 3 (Homo sapiens), Q8IZQ1 V3349A
- effect of a mutation on the interaction [2]: decreasing interaction

Substance: WD repeat and FYVE domain-containing protein 3 (Homo sapiens), Q8IZQ1 I3347A
- effect of a mutation on the interaction [3]: decreasing interaction

Substance: Microtubule-associated protein 1 light chain 3 beta (Homo sapiens) (from UniProt Q9GZQ8) Q26K;H27Y;H57D
- effect of a mutation on the interaction [4]: increasing interaction
